The target in test [1] is T1, human IL-23 (human, UniProt Q9NPF7 20-189; P29460 23-328).
T1 construct: Heterodimer of p19 and p40; in the proliferation assays CAT # HZ-1254, HumanZyme; also called hIL-23; hIL23
T1 sequence (looked up) 1: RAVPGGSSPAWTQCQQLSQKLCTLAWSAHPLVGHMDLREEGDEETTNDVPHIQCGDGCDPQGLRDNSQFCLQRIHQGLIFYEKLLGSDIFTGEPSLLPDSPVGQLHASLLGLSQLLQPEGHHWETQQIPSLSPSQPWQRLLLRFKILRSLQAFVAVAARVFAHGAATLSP
T1 sequence (looked up) 2: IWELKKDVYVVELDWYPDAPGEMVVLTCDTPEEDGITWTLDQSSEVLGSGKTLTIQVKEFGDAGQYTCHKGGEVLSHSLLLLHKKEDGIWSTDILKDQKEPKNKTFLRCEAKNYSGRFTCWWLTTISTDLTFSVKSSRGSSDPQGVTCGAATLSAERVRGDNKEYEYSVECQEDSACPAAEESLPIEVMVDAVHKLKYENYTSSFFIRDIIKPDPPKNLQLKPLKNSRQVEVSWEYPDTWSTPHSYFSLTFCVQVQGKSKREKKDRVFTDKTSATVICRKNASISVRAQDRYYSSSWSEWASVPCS
As to the kind of experiment: SPR (Biacore T200), hIL-23 immobilized on CM5 chip, mutein injected, fit 1:1 Binding. How it is done: (§1) Residual activated groups were quenched with ethanolamine. The reference channels were treated with EDC/NHS following ethanolamine (blank immobilization).
(§2) The binding assay was carried out with a contact time of 300 s, dissociation time of 1200 s and applying a flow rate of 30 μL/min. All measurements were performed at 25° C. […] Prior to the protein measurements three startup cycles were performed for conditioning purposes. Data were evaluated with Biacore T200 Evaluation software (V 1.0). Double referencing was used. The 1:1 Binding model was used to fit the raw data.
In general terms: In SPR one partner is held on a chip, and binding of the other changes the refractive index at the surface.

The target in test [2] is T1, human IL-23. As to the kind of experiment: SPR (Biacore T200), IL-23 amine-coupled to CM5 chip, mutein in solution, 25 C, 1:1 binding model. As for the experimental part: as §1, §2
Test [3] deals with T2, human IL-12p40 (human, UniProt P29460 23-328).
T2 construct: also called hIL-12p40
T2 sequence (looked up): T1 sequence (looked up) 2
As to the kind of experiment: solution competition ELISA, 10 nM SEQ ID NO: 9, plate with biotinylated hIL-23. How it is done: (§3) In the following detailed experimental protocol, incubation and washing steps were performed as described above in the competition ELISA protocol. A 384-well plate suitable for fluorescence measurements (Greiner FLUOTRAC™ 600, black flat bottom, high-binding) was coated with 20 μl of Neutravidin at a concentration of 5 μg/ml in PBS over night at 4° C. After washing, the Neutravidin-coated wells were blocked with 100 μl PBS-T/BSA for 1h at room temperature.
For orientation: An ELISA detects its analyte on a solid surface through an enzyme-linked reagent.

Test [4] has as its target T1, human IL-23. As to the kind of experiment: Surface Plasmon Resonance, legend of FIG. 6B (rounded value of the measurement of the example). How it is done: as §1, §2
Test [5] concerns the target T1, human IL-23. As to the kind of experiment: competition ELISA (ECL): 0.01 nM biotinylated hIL-23 pre-incubated with varied mutein, free hIL-23 captured on coated soluble hIL-23R (competitor). As for the experimental part: All incubation steps were performed with shaking 300 rpm, and the plate was washed after each incubation step with 80 μl PBS/0.05% Tween 20 for five times using a Biotek ELx405 select CW washer. […] After washing, the receptor-coated wells were blocked with 60 μl PBS-T/BSA for 1 h at room temperature.
After washing, 60 μl MSD Read Buffer T (2×) was added to each well and the plate was read within 15 min.

Test [6] has as its target T3, mouse IL-23 (mouse, UniProt Q9EQ14 22-196; P43432 23-335).
T3 construct: also called mIL-23
T3 sequence (looked up) 1: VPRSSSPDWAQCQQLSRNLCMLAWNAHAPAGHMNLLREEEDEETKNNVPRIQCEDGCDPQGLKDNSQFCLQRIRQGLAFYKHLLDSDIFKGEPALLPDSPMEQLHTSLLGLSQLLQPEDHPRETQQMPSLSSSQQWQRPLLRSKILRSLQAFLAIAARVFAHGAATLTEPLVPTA
T3 sequence (looked up) 2: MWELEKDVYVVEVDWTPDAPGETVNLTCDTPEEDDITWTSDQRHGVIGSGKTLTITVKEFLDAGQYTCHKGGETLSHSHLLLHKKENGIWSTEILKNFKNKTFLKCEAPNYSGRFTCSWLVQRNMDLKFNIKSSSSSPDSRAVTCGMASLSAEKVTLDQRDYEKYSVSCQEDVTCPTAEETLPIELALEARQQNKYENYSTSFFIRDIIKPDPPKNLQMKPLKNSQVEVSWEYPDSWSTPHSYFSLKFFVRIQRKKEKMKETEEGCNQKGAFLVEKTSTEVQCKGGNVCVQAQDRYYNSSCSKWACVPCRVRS
As to the kind of experiment: solution competition ELISA (FIG. 5B). As for the experimental part:
as §3

Test [7] has as its target T1, human IL-23. As to the kind of experiment: Surface Plasmon Resonance, legend of FIG. 6C (rounded value of the measurement of the example). As for the experimental part: as §1, §2
The target of test [8] is T1, human IL-23. As to the kind of experiment: cell-based or functional assay.
The target in test [9] is T2, human IL-12p40. As to the kind of experiment: solution competition ELISA, 1 nM SEQ ID NO: 10, plate with biotinylated hIL-23. How it is done:
as §3

Test [10] deals with T3, mouse IL-23. As to the kind of experiment: solution competition ELISA (FIG. 5A). As for the experimental part: as §3

B1: lipocalin mutein SEQ ID NO: 9 (designed binder)
chain: QDSTSDLIPAPPLSKVPLQQNFQDNQFHGKWYVVGMAGNLMLREDKDPTKMSATIYELKEDKSYNVTWVDFRFKKCKYQIGTFVPGSQPGEFTLGGIKSMPGMTSFLVRVVSTNYNQHAMVFFKYVYQNREYFEITLYGRTKELTSELKENFIRFSKSLGLPENHIVFPVPIDQCIDG
notes: Human NGAL (lipocalin 2) mutein specific for IL-23p19
As to B1, the off-rate constant (koff) in the test with human IL-23 [1] and with human IL-23 [2] was 0.00063 s⁻¹ throughout. Besides, the on-rate constant (kon) (as a rule, the rate constant with which the complex forms) with human IL-23 [1] is 4650 M⁻¹ s⁻¹; with human IL-23 [2], 4700 M⁻¹ s⁻¹. Further, the Kd in the test with human IL-23 [2] and with human IL-23 [4] was 135 nM each time. Moreover, the binding result with human IL-12p40 [3] is recorded as “no binding (tested: ligand up to 1000 nM)”; with mouse IL-23 [6], “binds”. Moreover, the IC50 (usually the concentration that gives 50% inhibition) in the test with human IL-23 [5] was found to be 119 nM.

B2: lipocalin mutein SEQ ID NO: 10 (designed binder)
chain: QDSTSDLIPAPPLSKVPLQQNFQDNQFHGKWYVVGLAGNTILREDKDPDKMEATIYELKEDKSYNVTSVDFIMKKCWYFITTFVPGSQPGEFTLGHIKSMPGMTSFLVRVVSTNYNQHAMVFFKYVYQNREFFEITLYGRTKELTSELKENFIRFSKSLGLPENHIVFPVPIDQCIDG
notes: as for B1
For B2, in the test with human IL-23 [7], the Kd – broadly, the concentration at which binding is half-saturated – was 11 nM. Further, in the test with human IL-23 [8], the “EC50 [nM] AVERAGE, hIL-23-induced proliferation of Ba/F3 cells expressing hIL-23R and hIL-12Rβ1” value worked out at 332 nM; the “EC50 [nM] Exp 1, hIL-23-induced proliferation of Ba/F3 cells expressing hIL-23R and hIL-12Rβ1” value was determined as 515 nM; the “EC50 [nM] Exp 2, hIL-23-induced proliferation of Ba/F3 cells expressing hIL-23R and hIL-12Rβ1” value was 199 nM; the “EC50 [nM] Exp 3, hIL-23-induced proliferation of Ba/F3 cells expressing hIL-23R and hIL-12Rβ1” value is 316 nM. Also, the “EC50 [nM] Exp 4, hIL-23-induced proliferation of Ba/F3 cells expressing hIL-23R and hIL-12Rβ1” value with human IL-23 [8] was 296 nM. Also, the binding result with human IL-12p40 [9] is “no binding (tested: ligand up to 1000 nM)”. Besides, in the test with human IL-23 [1], the koff (as a rule, the first-order rate constant of dissociation) came out at 0.000598 s⁻¹ and the kon turned out to be 36300 M⁻¹ s⁻¹. In addition, in the test with human IL-23 [2], the affinity, expressed as Kd, was 11.5 nM; the off-rate constant (koff) was found to be 0.00048 s⁻¹; the kon was determined as 42000 M⁻¹ s⁻¹. In the test with human IL-23 [5], this molecule returned an IC50 of 1.9 nM. Moreover, the binding result with mouse IL-23 [10] is on record as “binds”.

The record behind these values is patent publication US20200148733A1 (Pieris, published 2020).
